Measurements taken from patent US20140179700A1.

Experiments:
[1] = tested on: myelin basic protein (MBP) (Millipore)
[2] = biological target: myelin basic protein (MBP) (Millipore); experiment: cell-based or functional assay

MBP phosphorylation by ERK1/2 from epinephrine-treated SS RBCs compared to ERK1/2 from sham-treated cells (fold) [2] | Substance | phosphorylation of MBP by immunoprecipitated ERK1/2 (anti-phosphoMBP immunoblot) [1]
 | ERK1/2 immunoprecipitated from SS RBCs | ERK1/2 immunoprecipitated from sham-treated SS RBCs was capable of phosphorylating MBP to some extent
2.1 fold | ERK1/2 immunoprecipitated from SS RBCs (enzyme) | 
